Results taken from the supplement of paper PMC7877785.
± gives the uncertainty stated by the source.

Test: self-splicing fitness, log relative to wild type (ln ratio); higher = more splicing; Tetrahymena group I intron in knt gene, E. coli kanamycin selection, DiMSum; sequences stand for … in CUCUCU…GGAGGGAAAAGUUAUCAGGCAUGCACCUGGUAGCUAGUCUUUAAACCAAUAGAUUGCAUCGGUUUAAAAGGCAAGACCGUCAAAUUGCGGGAAAGGGGUCAACAGCCGUUCAGUACCAAGUCUCAGGGGAAACUUUGAGAUGGCCUUGCAAAGGGUAUGGUAAUAAGCUGACGGACAUGGUCCUAACCACGCAGCCAAGUCCUAAGUCAACAGAUCUUCUGUUGAUAUGGAUGCAGUUCACAGACUAAAUGUCGGUCGGGGAAGAUGUAUUCUUCUCAUAAGAUAUAGUCGGACCUCUCCUUAAUGGGAGCUAGCGGAUGAAGUGAUGCAACACUGGAGCCGCUGGGAACUAAUUUGUAUGCGAAAGUAUAUUGAUUAGUUUUGGAGUACUCGUGGUCG
Procedure, shortened: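 Colonies from six replicate transformations of E. coli BL21(DE3) were pooled and amplicon-sequenced on an Illumina HiSeq 2500. The library placed an intron with all eight P1ex-region nucleotides randomised inside the knt kanamycin-resistance gene on pET-22b(+), and cells grew overnight at 37°C or 30°C on LB agar with or without 25 μg/mL kanamycin (plus 100 μg/mL carbenicillin, 50 μM IPTG, 0.2% rhamnose). Fitness is the DiMSum error-weighted combination of wild-type-normalised replicate fold changes, kanamycin versus none.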

| Sequence | self-splicing fitness (ln) (30 °C) | self-splicing fitness (ln) (37 °C) |
| --- | --- | --- |
| AUGCAGCAAUAUUACGUAUU | -4.03 ± 0.26 | -1.69 ± 0.14 |
| AUGCAGCAAUAUUACGUGGC | -4.09 ± 0.28 | -2.53 ± 0.19 |
| AUGCAGCAAUAUUACGUGUG | -2.45 ± 0.071 | -1.44 ± 0.085 |
| AUGCAGCAAUAUUACGUUCG | -0.728 ± 0.059 | -0.798 ± 0.089 |
| AUGCAGCAAUAUUACGUUUC | -3.96 ± 0.18 | -3.31 ± 0.32 |
| AUGGAGCAAUAUUACGAAUA | -2.15 ± 0.34 | -1.08 ± 0.36 |
| AUGGAGCAAUAUUACGACCG | -3.83 ± 0.37 | -1.19 ± 0.26 |
| AUGGAGCAAUAUUACGAUGU | -1.25 ± 0.14 | -0.184 ± 0.2 |
| AUGGAGCAAUAUUACGCACC | -2.45 ± 0.4 | -1.26 ± 0.22 |
| AUGGAGCAAUAUUACGCCAC | -2.95 ± 0.41 | – |
| AUGGAGCAAUAUUACGCCCU | -2.84 ± 0.3 | -2.13 ± 0.37 |
| AUGGAGCAAUAUUACGCGGG | -2.84 ± 0.45 | – |
| AUGGAGCAAUAUUACGCUGU | -2.13 ± 0.21 | -1.37 ± 0.44 |
| AUGGAGCAAUAUUACGGACA | -3.23 ± 0.43 | -1.91 ± 0.2 |
| AUGGAGCAAUAUUACGGAGG | -2.11 ± 0.17 | -2.54 ± 0.3 |
| AUGGAGCAAUAUUACGGGGU | – | -2.27 ± 0.37 |
| AUGGAGCAAUAUUACGGGUA | -3.28 ± 0.27 | -3.06 ± 0.35 |
| AUGGAGCAAUAUUACGGUCC | -3 ± 0.32 | -0.466 ± 0.31 |
| AUGGAGCAAUAUUACGGUGG | -4.09 ± 0.3 | -2.17 ± 0.27 |
| AUGGAGCAAUAUUACGUACU | -0.848 ± 0.16 | -0.491 ± 0.18 |
| AUGGAGCAAUAUUACGUCAU | – | -1.33 ± 0.27 |
| AUGGAGCAAUAUUACGUGAG | -2.31 ± 0.14 | -2.09 ± 0.15 |
| AUGGAGCAAUAUUACGUGGA | -4.25 ± 0.4 | -1.78 ± 0.29 |
| AUGGAGCAAUAUUACGUGGC | -2.39 ± 0.29 | -2.39 ± 0.38 |

| Sequence | self-splicing fitness (ln) (30 °C) | self-splicing fitness (ln) (37 °C) |
| --- | --- | --- |
| AUGGAGCAAUAUUACGUGGU | -3.08 ± 0.17 | -1.35 ± 0.23 |
| AUGGAGCAAUAUUACGUGUG | – | -2.69 ± 0.24 |
| AUGGAGCAAUAUUACGUUAA | -2.58 ± 0.22 | -1.59 ± 0.23 |
| AUGUAGCAAUAUUACGAAAG | -2.59 ± 0.23 | -2.2 ± 0.26 |
| AUGUAGCAAUAUUACGACCG | -0.834 ± 0.12 | -0.5 ± 0.17 |
| AUGUAGCAAUAUUACGACUA | -0.419 ± 0.27 | -0.536 ± 0.31 |
| AUGUAGCAAUAUUACGAGAU | -2.04 ± 0.14 | -0.409 ± 0.13 |
| AUGUAGCAAUAUUACGAGGA | -3 ± 0.41 | -2.11 ± 0.43 |
| AUGUAGCAAUAUUACGAUAG | -2.48 ± 0.19 | -2.67 ± 0.27 |
| AUGUAGCAAUAUUACGAUGU | -0.753 ± 0.064 | -0.0629 ± 0.087 |
| AUGUAGCAAUAUUACGAUUG | -1.21 ± 0.15 | -3.05 ± 0.38 |
| AUGUAGCAAUAUUACGCAGG | -2.06 ± 0.22 | -1.7 ± 0.19 |
| AUGUAGCAAUAUUACGCCGG | -2.45 ± 0.17 | -0.942 ± 0.33 |
| AUGUAGCAAUAUUACGCCUG | -1.33 ± 0.23 | -0.722 ± 0.21 |
| AUGUAGCAAUAUUACGCGCA | -0.46 ± 0.16 | -0.226 ± 0.15 |
| AUGUAGCAAUAUUACGCGGU | -2.3 ± 0.15 | -1.58 ± 0.2 |
| AUGUAGCAAUAUUACGCUAA | -1.75 ± 0.12 | -0.814 ± 0.13 |
| AUGUAGCAAUAUUACGGAGG | -3.57 ± 0.23 | -2.57 ± 0.23 |
| AUGUAGCAAUAUUACGGCGA | -0.117 ± 0.088 | -0.00452 ± 0.11 |
| AUGUAGCAAUAUUACGGCUA | -2.45 ± 0.22 | -2.14 ± 0.25 |
| AUGUAGCAAUAUUACGUAAA | -2.25 ± 0.25 | -1.9 ± 0.26 |
| AUGUAGCAAUAUUACGUAGC | -2.56 ± 0.18 | -2.43 ± 0.29 |
| AUGUAGCAAUAUUACGUGUA | -2.47 ± 0.11 | -1.74 ± 0.089 |
| AUGUAGCAAUAUUACGUUAU | -2.41 ± 0.22 | -2.12 ± 0.22 |

| Sequence | self-splicing fitness (ln) (30 °C) | self-splicing fitness (ln) (37 °C) |
| --- | --- | --- |
| AUUAAGCAAUAUUACGAAAA | -1.27 ± 0.16 | -1.5 ± 0.18 |
| AUUAAGCAAUAUUACGAAAC | -3.37 ± 0.16 | -1.6 ± 0.15 |
| AUUAAGCAAUAUUACGAAAG | -1.89 ± 0.15 | -1.23 ± 0.16 |
| AUUAAGCAAUAUUACGAACC | -1.35 ± 0.29 | -0.847 ± 0.29 |
| AUUAAGCAAUAUUACGACAC | -0.804 ± 0.13 | -0.46 ± 0.14 |
| AUUAAGCAAUAUUACGAGAC | -3.39 ± 0.48 | -1.46 ± 0.27 |
| AUUAAGCAAUAUUACGAGUA | -2.07 ± 0.16 | -1.49 ± 0.13 |
| AUUAAGCAAUAUUACGCAGG | -2.22 ± 0.19 | -0.608 ± 0.2 |
| AUUAAGCAAUAUUACGCGCA | -0.661 ± 0.13 | 0.376 ± 0.16 |
| AUUAAGCAAUAUUACGCGGA | -2.44 ± 0.2 | -0.491 ± 0.15 |
| AUUAAGCAAUAUUACGCGUG | -0.804 ± 0.067 | -0.697 ± 0.081 |
| AUUAAGCAAUAUUACGCUCG | -0.344 ± 0.11 | 0.171 ± 0.15 |
| AUUAAGCAAUAUUACGCUCU | -0.588 ± 0.18 | 0.11 ± 0.16 |
| AUUAAGCAAUAUUACGCUUA | -2.18 ± 0.26 | -1.82 ± 0.25 |
| AUUAAGCAAUAUUACGGAAU | -1.3 ± 0.14 | -1.3 ± 0.18 |
| AUUAAGCAAUAUUACGGACG | -1.18 ± 0.12 | -0.721 ± 0.14 |
| AUUAAGCAAUAUUACGGAGG | -2.32 ± 0.16 | -1.42 ± 0.27 |
| AUUAAGCAAUAUUACGGUCU | -0.183 ± 0.15 | 0.0171 ± 0.15 |
| AUUAAGCAAUAUUACGUAAC | -2.12 ± 0.12 | -1.88 ± 0.14 |
| AUUAAGCAAUAUUACGUACU | 0.0206 ± 0.094 | 0.125 ± 0.12 |
| AUUAAGCAAUAUUACGUAGA | -2.39 ± 0.15 | -0.947 ± 0.15 |
| AUUAAGCAAUAUUACGUUAC | -2.99 ± 0.26 | -1.16 ± 0.27 |
| AUUAAGCAAUAUUACGUUUA | -1.61 ± 0.14 | -1.54 ± 0.15 |
| AUUCAGCAAUAUUACGAAUC | -2.12 ± 0.2 | -0.519 ± 0.32 |

| Sequence | self-splicing fitness (ln) (30 °C) | self-splicing fitness (ln) (37 °C) |
| --- | --- | --- |
| AUUCAGCAAUAUUACGAAUU | -3.71 ± 0.15 | -2.29 ± 0.16 |
| AUUCAGCAAUAUUACGACCG | 0.174 ± 0.18 | -0.187 ± 0.27 |
| AUUCAGCAAUAUUACGACUG | -1.47 ± 0.13 | -0.646 ± 0.15 |
| AUUCAGCAAUAUUACGAUAG | -3.99 ± 0.42 | -2.57 ± 0.26 |
| AUUCAGCAAUAUUACGAUAU | -0.41 ± 0.057 | 0.146 ± 0.079 |
| AUUCAGCAAUAUUACGCAGA | -2.28 ± 0.21 | -0.845 ± 0.12 |
| AUUCAGCAAUAUUACGCAUC | -2.75 ± 0.16 | -0.806 ± 0.16 |
| AUUCAGCAAUAUUACGCCCU | 0.164 ± 0.13 | 0.287 ± 0.21 |
| AUUCAGCAAUAUUACGCGCC | -1.17 ± 0.15 | 0.194 ± 0.21 |
| AUUCAGCAAUAUUACGCGUU | -0.912 ± 0.07 | -0.348 ± 0.081 |
| AUUCAGCAAUAUUACGGAGG | -2.29 ± 0.13 | -1.13 ± 0.13 |
| AUUCAGCAAUAUUACGGCCA | -0.32 ± 0.21 | -0.225 ± 0.21 |
| AUUCAGCAAUAUUACGGCGA | -0.392 ± 0.078 | -0.501 ± 0.084 |
| AUUCAGCAAUAUUACGGCGU | 0.256 ± 0.057 | 0.488 ± 0.074 |
| AUUCAGCAAUAUUACGGGCU | -2.2 ± 0.12 | -1.38 ± 0.12 |
| AUUCAGCAAUAUUACGGGUU | -2.8 ± 0.17 | -1.75 ± 0.16 |
| AUUCAGCAAUAUUACGUACA | -0.718 ± 0.095 | 0.309 ± 0.11 |
| AUUCAGCAAUAUUACGUCAG | -2.51 ± 0.15 | -1.67 ± 0.22 |
| AUUCAGCAAUAUUACGUGAC | -3.05 ± 0.44 | -1.84 ± 0.35 |
| AUUCAGCAAUAUUACGUGUC | -4.2 ± 0.22 | -2.02 ± 0.2 |
| AUUCAGCAAUAUUACGUUCA | -1.07 ± 0.12 | -0.606 ± 0.13 |
| AUUCAGCAAUAUUACGUUGA | -2.64 ± 0.1 | -1.34 ± 0.093 |
| AUUCAGCAAUAUUACGUUGG | -2.45 ± 0.12 | -1.94 ± 0.13 |
| AUUCAGCAAUAUUACGUUUG | -2.76 ± 0.094 | -1.54 ± 0.1 |
